Our source for the killing efficacy against NALM-6 cells, 18 h co-culture, 2:1 (E:T) ratio (luciferase) values is patent US20240109978A1.

The target of this assay is CD19 on NALM-6 cells (CD19+ B lineage, acute lymphoblastic leukemia) (UniProt P15391). The assay can be described thus: cell-based or functional assay.
UniProt P15391, sequence (P15391 20-556 limits assumed): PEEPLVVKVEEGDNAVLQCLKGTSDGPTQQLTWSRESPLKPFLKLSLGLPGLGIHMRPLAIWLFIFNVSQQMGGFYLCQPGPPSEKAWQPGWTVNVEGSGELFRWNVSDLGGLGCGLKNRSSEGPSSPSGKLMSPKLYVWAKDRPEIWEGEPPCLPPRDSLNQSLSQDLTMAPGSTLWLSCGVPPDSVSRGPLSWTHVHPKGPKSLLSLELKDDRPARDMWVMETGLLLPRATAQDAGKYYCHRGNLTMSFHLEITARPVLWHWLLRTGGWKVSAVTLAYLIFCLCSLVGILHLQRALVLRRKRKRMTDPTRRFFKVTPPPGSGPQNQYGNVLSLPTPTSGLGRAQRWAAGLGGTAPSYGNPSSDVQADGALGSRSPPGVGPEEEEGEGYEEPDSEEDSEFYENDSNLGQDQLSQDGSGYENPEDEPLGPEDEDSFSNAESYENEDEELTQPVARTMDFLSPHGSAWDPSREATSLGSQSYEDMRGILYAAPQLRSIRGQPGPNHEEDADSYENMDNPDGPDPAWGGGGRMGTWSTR

Regarding “IgG1-based CAR (FMC63 scFv, IgG1-CH2-CH3 spacer, CD28 transmembrane and intracellular domains, and CD3zeta-signaling domain) (receptor)”, the killing efficacy against NALM-6 cells, 18 h co-culture, 2:1 (E:T) ratio (luciferase) worked out at 100%.
